According to article PMC4072508, “Genome-Wide Prediction and Validation of Peptides That Bind Human Prosurvival Bcl-2 Proteins” (PLoS Computational Biology, 2014):

T1: Bfl-1, Q16548
T1 chain: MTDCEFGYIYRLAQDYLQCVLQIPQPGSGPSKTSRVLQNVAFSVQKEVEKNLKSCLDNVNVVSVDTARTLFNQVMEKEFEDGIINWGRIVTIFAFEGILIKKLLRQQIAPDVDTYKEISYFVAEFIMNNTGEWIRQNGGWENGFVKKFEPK

T2: Mcl-1, Q07820
T2 chain: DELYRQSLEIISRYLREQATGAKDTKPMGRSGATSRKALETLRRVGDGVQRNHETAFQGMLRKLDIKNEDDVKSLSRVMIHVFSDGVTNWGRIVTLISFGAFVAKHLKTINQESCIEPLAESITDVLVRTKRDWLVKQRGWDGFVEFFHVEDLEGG


Experiments:
Experiment in all cases: peptide SPOT array, c-Myc-tagged receptor at 1 uM or 100 nM, anti-c-Myc-Cy3
Bcl-xL, Q07817 = molecular target: Bcl-xL, Q07817
Bfl-1, Q16548 = molecular target: T1, Bfl-1, Q16548
Mcl-1, Q07820 = molecular target: T2, Mcl-1, Q07820

Sequence of Bcl-xL, Q07817 (Q07817 1-209): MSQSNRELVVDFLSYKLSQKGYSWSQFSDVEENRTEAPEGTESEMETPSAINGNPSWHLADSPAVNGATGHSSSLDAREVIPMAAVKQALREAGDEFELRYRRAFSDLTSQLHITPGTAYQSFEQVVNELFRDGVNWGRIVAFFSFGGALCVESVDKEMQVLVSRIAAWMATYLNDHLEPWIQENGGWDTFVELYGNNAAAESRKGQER

Row | SPOT signal as a fraction of Bim BH3's signal on the same receptor and array (Bcl-xL, Q07817) | SPOT signal as a fraction of Bim BH3's signal on the same receptor and array (Bfl-1, Q16548) | SPOT signal as a fraction of Bim BH3's signal on the same receptor and array (Mcl-1, Q07820) | Binder
1 | 0.25 | 0.1 | 0.08 | VDSIRPKCQEDRHLCDQFSAEIARRR [MCF2L]
2 | 0.68 | 0.38 | 0.63 | LALLAQPSHLDRQVARSVFGHICSHL [MYBBP1A]
3 | 0.38 | 0.21 | 0.25 | ERLKGQLCDVLLIVGDQKFRAHKNVL [ZNF295]
4 | 0.07 | 0.04 | 0.04 | FGEYSGISENIILVGDDFWIPETSFI [ROS1]
5 | 0.28 | 0.37 | 0.39 | YFKLFRASGDMRTNLDNYLYEIQLSS [IGF2R]
6 | 0.06 | 0.04 | 0.04 | APEEDFFSIHIRIVLDWTEGLFNACG [CYBB]
7 | 0.05 | 0.04 | 0.04 | QASREAGAAADRNVAQRLFENYQTQS [CCDC68]
8 | 0.07 | 0.04 | 0.05 | RAKASSLSEELKHFADGLETDGTLQK [DSN1]
9 | 0.74 | 0.49 | 0.71 | AEVMRQRGINMRYLLKVLELVLRSPA [KIAA0664]
10 | 0.08 | 0.04 | 0.16 | APGEEDLCAAFNVICDNVGKDWRRLA [FADD]
11 | 1.23 | 0.53 | 0.56 | WVKSIRICTPMGKLLDSCHPLTRKVP [PROK2]
12 | 0.07 | 0.04 | 0.05 | QCPIFRLGDIFRETGDNFSDVAIQGG [P2RX7]
13 | 0.06 | 0.04 | 0.05 | DSLLWKLAGLLRESLDVVLSGCSTLS [STK11IP]
14 | 0.12 | 0.09 | 0.18 | MRSQLGKATALAIMLDKLWWADQVSE [LRP1]
15 | 0.06 | 0.05 | 0.04 | LFWTPLLVVLDAGLGDTEAQQTTLHP [SGCA]
16 | 0.07 | 0.06 | 0.05 | SFLSAHCASHDAWFGDSLTSLSQRLQ [TMEM214]
17 | 0.12 | 0.05 | 0.06 | NGGLLEFHKSLQEILDKNDHWFDIDP [DZIP3]
18 | 0.06 | 0.03 | 0.04 | TGSLCEIATTDSFEGDGFLWVKSGSV [CRB1]
19 | 0.11 | 0.07 | 0.1 | LALMMQLARELKTLLRDLGMAVVVTN [RAD51L3]
20 | 0.17 | 0.22 | 0.45 | LMARPAVALHDQSIADGFKEAVRYVL [SOS2]
21 | 0.06 | 0.05 | 0.04 | QEQEQHVPFDIHTYGDQLVSRFPQLN [NCAPH2]
22 | 0.03 | 0.01 | 0.02 | GVMTQEVGQLLQDMLDDVYQQYRSLT [HUWE1]
23 | 0.05 | 0.03 | 0.04 | HHSSQEMSSEYREYLDSFGKCPGGRN [PCYT2]
24 | 0.07 | 0.03 | 0.03 | HTALENCASLLCIRADELQEALTSHC [MYO3A]
25 | 0.21 | 0.17 | 0.18 | SMRRNAMGVGLVFELDLFTTRHISHW [DNAH10]
